Ends that are not written are not given here.
Biological target: T1, beta-catenin (Homo sapiens, UniProt P35222)
T1 construct: made in house; host or cells: E. coli BL21 (DE3) pLysS
T1 sequence (P35222 134-665): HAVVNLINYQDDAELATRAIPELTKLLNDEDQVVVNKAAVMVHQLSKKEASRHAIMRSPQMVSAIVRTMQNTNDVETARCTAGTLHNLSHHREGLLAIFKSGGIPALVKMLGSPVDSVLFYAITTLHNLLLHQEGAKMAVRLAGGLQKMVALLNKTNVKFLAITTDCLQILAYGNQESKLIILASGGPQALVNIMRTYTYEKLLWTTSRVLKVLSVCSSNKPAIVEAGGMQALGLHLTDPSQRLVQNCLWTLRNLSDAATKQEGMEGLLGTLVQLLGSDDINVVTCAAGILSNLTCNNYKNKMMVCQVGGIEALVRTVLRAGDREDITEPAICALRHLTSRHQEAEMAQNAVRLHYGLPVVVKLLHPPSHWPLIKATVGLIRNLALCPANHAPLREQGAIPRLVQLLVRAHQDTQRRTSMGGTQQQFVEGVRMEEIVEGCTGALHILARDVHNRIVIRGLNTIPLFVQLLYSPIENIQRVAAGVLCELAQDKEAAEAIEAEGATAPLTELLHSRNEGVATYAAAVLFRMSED
Assay: Phage Library Screening with NGS, beta-catenin
Type: binding
Settings: for Target Concentration 10 (phage screen NGS readout): beta-catenin target concentration 10; for Target Concentration 10 (phage screen NGS readout) / Target Concentration 30 (phage screen NGS readout) / Target Concentration 100 (phage screen NGS readout) / Target Concentration 300 (phage screen NGS readout): no competitor; for Target Concentration 30 (phage screen NGS readout): beta-catenin target concentration 30; for Target Concentration 100 (phage screen NGS readout): beta-catenin target concentration 100; for Target Concentration 300 (phage screen NGS readout): beta-catenin target concentration 300; for Target Concentration 1000 (phage screen NGS readout): beta-catenin target concentration 1000

Sequence: DPADNECILAAHICTLA
- Target Concentration BLANK (phage screen NGS readout) (first column): 0
- Target Concentration BLANK (phage screen NGS readout) (fourth column): 0
- Target Concentration BLANK (phage screen NGS readout) (second column): 0
- Target Concentration BLANK (phage screen NGS readout) (third column): 0
- Target Concentration 10 (phage screen NGS readout): 0
- Target Concentration 30 (phage screen NGS readout): 5
- Target Concentration 100 (phage screen NGS readout): 24
- Target Concentration 300 (phage screen NGS readout): 36
- Target Concentration 1000 (phage screen NGS readout) (first 1000 column): 45
- Target Concentration 1000 (phage screen NGS readout) (second 1000 column): 30

Sequence: DPADTECILAAHFCHYF
- Target Concentration BLANK (phage screen NGS readout) (first column): 0
- Target Concentration BLANK (phage screen NGS readout) (fourth column): 0
- Target Concentration BLANK (phage screen NGS readout) (second column): 2
- Target Concentration BLANK (phage screen NGS readout) (third column): 0
- Target Concentration 10 (phage screen NGS readout): 0
- Target Concentration 30 (phage screen NGS readout): 1
- Target Concentration 100 (phage screen NGS readout): 39
- Target Concentration 300 (phage screen NGS readout): 81
- Target Concentration 1000 (phage screen NGS readout) (first 1000 column): 78
- Target Concentration 1000 (phage screen NGS readout) (second 1000 column): 49

Sequence: DPADWICEHAALTCQEF
- Target Concentration BLANK (phage screen NGS readout) (first column): 0
- Target Concentration BLANK (phage screen NGS readout) (fourth column): 0
- Target Concentration BLANK (phage screen NGS readout) (second column): 1
- Target Concentration BLANK (phage screen NGS readout) (third column): 0
- Target Concentration 10 (phage screen NGS readout): 0
- Target Concentration 30 (phage screen NGS readout): 2
- Target Concentration 100 (phage screen NGS readout): 6
- Target Concentration 300 (phage screen NGS readout): 15
- Target Concentration 1000 (phage screen NGS readout) (first 1000 column): 12
- Target Concentration 1000 (phage screen NGS readout) (second 1000 column): 14

Sequence: DPADYDCILAAHICTNI
- Target Concentration BLANK (phage screen NGS readout) (first column): 0
- Target Concentration BLANK (phage screen NGS readout) (fourth column): 0
- Target Concentration BLANK (phage screen NGS readout) (second column): 0
- Target Concentration BLANK (phage screen NGS readout) (third column): 0
- Target Concentration 10 (phage screen NGS readout): 2
- Target Concentration 30 (phage screen NGS readout): 18
- Target Concentration 100 (phage screen NGS readout): 70
- Target Concentration 300 (phage screen NGS readout): 147
- Target Concentration 1000 (phage screen NGS readout) (first 1000 column): 118
- Target Concentration 1000 (phage screen NGS readout) (second 1000 column): 122

Sequence: DPADYECVIAAQVCQHF (not fully specified; cysteine pairing not given here)
- Target Concentration BLANK (phage screen NGS readout) (first column): 0
- Target Concentration BLANK (phage screen NGS readout) (fourth column): 0
- Target Concentration BLANK (phage screen NGS readout) (second column): 4
- Target Concentration BLANK (phage screen NGS readout) (third column): 0
- Target Concentration 10 (phage screen NGS readout): 0
- Target Concentration 30 (phage screen NGS readout): 1
- Target Concentration 100 (phage screen NGS readout): 11
- Target Concentration 300 (phage screen NGS readout): 18
- Target Concentration 1000 (phage screen NGS readout) (first 1000 column): 19
- Target Concentration 1000 (phage screen NGS readout) (second 1000 column): 14

Sequence: DPAEADCMMAAHICSNI
- Target Concentration BLANK (phage screen NGS readout) (first column): 0
- Target Concentration BLANK (phage screen NGS readout) (fourth column): 0
- Target Concentration BLANK (phage screen NGS readout) (second column): 0
- Target Concentration BLANK (phage screen NGS readout) (third column): 0
- Target Concentration 10 (phage screen NGS readout): 0
- Target Concentration 30 (phage screen NGS readout): 0
- Target Concentration 100 (phage screen NGS readout): 21
- Target Concentration 300 (phage screen NGS readout): 15
- Target Concentration 1000 (phage screen NGS readout) (first 1000 column): 46
- Target Concentration 1000 (phage screen NGS readout) (second 1000 column): 22

Sequence: DPAEAECILAAHICNIS
- Target Concentration BLANK (phage screen NGS readout) (first column): 0
- Target Concentration BLANK (phage screen NGS readout) (fourth column): 0
- Target Concentration BLANK (phage screen NGS readout) (second column): 0
- Target Concentration BLANK (phage screen NGS readout) (third column): 0
- Target Concentration 10 (phage screen NGS readout): 10
- Target Concentration 30 (phage screen NGS readout): 0
- Target Concentration 100 (phage screen NGS readout): 37
- Target Concentration 300 (phage screen NGS readout): 39
- Target Concentration 1000 (phage screen NGS readout) (first 1000 column): 51
- Target Concentration 1000 (phage screen NGS readout) (second 1000 column): 52

Sequence: DPAEAICILAAHECWWD
- Target Concentration BLANK (phage screen NGS readout) (first column): 0
- Target Concentration BLANK (phage screen NGS readout) (fourth column): 0
- Target Concentration BLANK (phage screen NGS readout) (second column): 0
- Target Concentration BLANK (phage screen NGS readout) (third column): 0
- Target Concentration 10 (phage screen NGS readout): 19
- Target Concentration 30 (phage screen NGS readout): 38
- Target Concentration 100 (phage screen NGS readout): 139
- Target Concentration 300 (phage screen NGS readout): 235
- Target Concentration 1000 (phage screen NGS readout) (first 1000 column): 322
- Target Concentration 1000 (phage screen NGS readout) (second 1000 column): 228

Sequence: DPAEFYCEMAAVHCELL
- Target Concentration BLANK (phage screen NGS readout) (first column): 0
- Target Concentration BLANK (phage screen NGS readout) (fourth column): 0
- Target Concentration BLANK (phage screen NGS readout) (second column): 0
- Target Concentration BLANK (phage screen NGS readout) (third column): 0
- Target Concentration 10 (phage screen NGS readout): 2
- Target Concentration 30 (phage screen NGS readout): 1
- Target Concentration 100 (phage screen NGS readout): 17
- Target Concentration 300 (phage screen NGS readout): 99
- Target Concentration 1000 (phage screen NGS readout) (first 1000 column): 61
- Target Concentration 1000 (phage screen NGS readout) (second 1000 column): 107

Sequence: DPAEHDCMLAAHFCRHF
- Target Concentration BLANK (phage screen NGS readout) (first column): 0
- Target Concentration BLANK (phage screen NGS readout) (fourth column): 0
- Target Concentration BLANK (phage screen NGS readout) (second column): 2
- Target Concentration BLANK (phage screen NGS readout) (third column): 0
- Target Concentration 10 (phage screen NGS readout): 8
- Target Concentration 30 (phage screen NGS readout): 55
- Target Concentration 100 (phage screen NGS readout): 242
- Target Concentration 300 (phage screen NGS readout): 194
- Target Concentration 1000 (phage screen NGS readout) (first 1000 column): 337
- Target Concentration 1000 (phage screen NGS readout) (second 1000 column): 260

Sequence: DPAEIICYEAAFLCQYQ
- Target Concentration BLANK (phage screen NGS readout) (first column): 0
- Target Concentration BLANK (phage screen NGS readout) (fourth column): 0
- Target Concentration BLANK (phage screen NGS readout) (second column): 0
- Target Concentration BLANK (phage screen NGS readout) (third column): 0
- Target Concentration 10 (phage screen NGS readout): 0
- Target Concentration 30 (phage screen NGS readout): 0
- Target Concentration 100 (phage screen NGS readout): 0
- Target Concentration 300 (phage screen NGS readout): 15
- Target Concentration 1000 (phage screen NGS readout) (first 1000 column): 38
- Target Concentration 1000 (phage screen NGS readout) (second 1000 column): 26

Sequence: DPAELACEWAAIHCELV
- Target Concentration BLANK (phage screen NGS readout) (first column): 0
- Target Concentration BLANK (phage screen NGS readout) (fourth column): 0
- Target Concentration BLANK (phage screen NGS readout) (second column): 0
- Target Concentration BLANK (phage screen NGS readout) (third column): 0
- Target Concentration 10 (phage screen NGS readout): 0
- Target Concentration 30 (phage screen NGS readout): 2
- Target Concentration 100 (phage screen NGS readout): 41
- Target Concentration 300 (phage screen NGS readout): 94
- Target Concentration 1000 (phage screen NGS readout) (first 1000 column): 69
- Target Concentration 1000 (phage screen NGS readout) (second 1000 column): 75

Sequence: DPAENTCSWAAEHCALV
- Target Concentration BLANK (phage screen NGS readout) (first column): 0
- Target Concentration BLANK (phage screen NGS readout) (fourth column): 0
- Target Concentration BLANK (phage screen NGS readout) (second column): 0
- Target Concentration BLANK (phage screen NGS readout) (third column): 0
- Target Concentration 10 (phage screen NGS readout): 0
- Target Concentration 30 (phage screen NGS readout): 0
- Target Concentration 100 (phage screen NGS readout): 0
- Target Concentration 300 (phage screen NGS readout): 26
- Target Concentration 1000 (phage screen NGS readout) (first 1000 column): 28
- Target Concentration 1000 (phage screen NGS readout) (second 1000 column): 31

Sequence: DPAESDCILAAYICYVE
- Target Concentration BLANK (phage screen NGS readout) (first column): 0
- Target Concentration BLANK (phage screen NGS readout) (fourth column): 0
- Target Concentration BLANK (phage screen NGS readout) (second column): 2
- Target Concentration BLANK (phage screen NGS readout) (third column): 0
- Target Concentration 10 (phage screen NGS readout): 0
- Target Concentration 30 (phage screen NGS readout): 1
- Target Concentration 100 (phage screen NGS readout): 22
- Target Concentration 300 (phage screen NGS readout): 51
- Target Concentration 1000 (phage screen NGS readout) (first 1000 column): 69
- Target Concentration 1000 (phage screen NGS readout) (second 1000 column): 40

From patent publication US20240376151A1, “STAPLED PEPTIDES AND METHODS THEREOF” (FOG PHARMACEUTICALS, INC., priority 2022, published 2024)
